This test addresses receptors for heregulin on rat Schwann cell lines (ESC and ASC).

Regarding “recombinant human heregulin-β1 177-244 fragment (from UniProt Q02297) (ligand)”, the half-maximal response, growth of rat ESC and ASC Schwann cell lines fell in the range of 1 to 2 nM.
